# According to patent publication US20130209454A1:
# B1: NIH45-46^G54W IgG (antibody, name in Kabat numbering, V domains shown)
# VH: QVRLSQSGGQMKKPGESMRLSCRASGYEFLNCPINWIRLAPGRRPEWMGWLKPRWGAVNYARKFQGRVTMTRDVYSDTAFLELRSLTSDDTAVYFCTRGKYCTARDYYNWDFEHWGRGAPVTVSS
# VL: EIVLTQSPATLSLSPGETAIISCRTSQSGSLAWYQQRPGQAPRLVIYSGSTRAAGIPDRFSGSRWGADYNLSISNLESGDFGVYYCQQYEFFGQGTKVQVDI
# B2: NIH45-46^G54F IgG (antibody, name in Kabat numbering, V domains shown)
# VH: QVRLSQSGGQMKKPGESMRLSCRASGYEFLNCPINWIRLAPGRRPEWMGWLKPRFGAVNYARKFQGRVTMTRDVYSDTAFLELRSLTSDDTAVYFCTRGKYCTARDYYNWDFEHWGRGAPVTVSS
# VL: EIVLTQSPATLSLSPGETAIISCRTSQSGSLAWYQQRPGQAPRLVIYSGSTRAAGIPDRFSGSRWGADYNLSISNLESGDFGVYYCQQYEFFGQGTKVQVDI
# Columns and labels:
# Experiment in all cases: cell-based or functional assay
# [1] = biological target: HIV-1 Env of strain Du172.17 (HIV-1)
# [2] = biological target: HIV-1 strain 3016.v5.c45 envelope (gp120) (HIV-1)
# [3] = biological target: HIV-1 Env of strain 703357.C02 (HIV-1)
# [4] = biological target: HIV-1 Env of strain 6480.v4.c25 (HIV-1)
# [5] = biological target: HIV-1 Env of strain X2131_C1_B5 (HIV-1)
# [6] = biological target: HIV-1 strain P0402_c2_11 envelope (gp120) (HIV-1)
# [7] = biological target: HIV-1 Env of strain 3415.v1.c1 (HIV-1)
# [8] = biological target: HIV-1 strain TRO.11 envelope (gp120) (HIV-1)
# [9] = biological target: HIV-1 strain Ce1176_A3 envelope (gp120) (HIV-1)
# [10] = biological target: HIV-1 strain 3718.v3.c11 envelope (gp120) (HIV-1)
# [11] = biological target: HIV-1 Env of strain HIV-16845-2.22 (HIV-1)
# [12] = biological target: HIV-1 strain 6811.v7.c18 envelope (gp120) (HIV-1)
# [13] = biological target: HIV-1 Env of strain TROJO4551.58 (HIV-1)
# [14] = biological target: HIV-1 strain ZM249M.PL1 envelope (gp120) (HIV-1)
# [15] = biological target: HIV-1 strain CAP45.2.00.G3 envelope (gp120) (HIV-1)
# [16] = biological target: HIV-1 strain C2101.c01 envelope (gp120) (HIV-1)
# [17] = biological target: HIV-1 Env of strain Ce703010054_2A2 (HIV-1)
# [18] = biological target: HIV-1 strain WEAU_d15_410_787 envelope (gp120) (HIV-1)
# [19] = biological target: HIV-1 Env of strain CNE58 (HIV-1)
# [20] = biological target: HIV-1 strain ZM247v1(Rev-) envelope (gp120) (HIV-1)
# [21] = biological target: HIV-1 Env of strain WEAU_d15_410_787 (HIV-1)
# [22] = biological target: HIV-1 strain 6535.3 envelope (gp120) (HIV-1)
# [23] = biological target: HIV-1 Env of strain ZM214M.PL15 (HIV-1)
# [24] = biological target: HIV-1 strain 3301.v1.c24 envelope (gp120) (HIV-1)
# [25] = biological target: HIV-1 Env of strain Q842.d12 (HIV-1)
# [26] = biological target: HIV-1 strain 89-F1_2_25 envelope (gp120) (HIV-1)
# [27] = biological target: HIV-1 Env of strain 3103.v3.c10 (HIV-1)
# [28] = biological target: HIV-1 Env of strain 0815.v3.c3 (HIV-1)
# [29] = biological target: HIV-1 strain T257-31 envelope (gp120) (HIV-1)
# [30] = biological target: HIV-1 strain T255-34 envelope (gp120) (HIV-1)
# [31] = biological target: HIV-1 strain QH0692.42 envelope (gp120) (HIV-1)
# [32] = biological target: HIV-1 Env of strain ZM247v1(Rev-) (HIV-1)
# [33] = biological target: HIV-1 Env of strain REJO4541.67 (HIV-1)
# [34] = biological target: HIV-1 Env of strain 6545.v4.cl (HIV-1)
# [35] = biological target: HIV-1 Env of strain T250-4 (HIV-1)
# [36] = biological target: HIV-1 Env of strain THRO4156.18 (HIV-1)
# [37] = biological target: HIV-1 Env of strain Ce0682_E4 (HIV-1)
# [38] = biological target: HIV-1 strain CNE58 envelope (gp120) (HIV-1)
# [39] = biological target: HIV-1 strain 6545.v4.c1 envelope (gp120) (HIV-1)
# [40] = biological target: HIV-1 Env of strain Du422.1 (HIV-1)
# [41] = biological target: HIV-1 strain ZM197M.PB7 envelope (gp120) (HIV-1)
# [42] = biological target: HIV-1 strain T251-18 envelope (gp120) (HIV-1)
# [43] = biological target: HIV-1 strain 703357.C02 envelope (gp120) (HIV-1)
# [44] = biological target: HIV-1 strain ZM135M.PL10a envelope (gp120) (HIV-1)
# [45] = biological target: HIV-1 strain 231965.c01 envelope (gp120) (HIV-1)
# [46] = biological target: HIV-1 strain CNE53 envelope (gp120) (HIV-1)
# [47] = biological target: HIV-1 strain 3415.v1.c1 envelope (gp120) (HIV-1)
# [48] = biological target: HIV-1 Env of strain QH0692.42 (HIV-1)
# [49] = biological target: HIV-1 strain 62357_14_D3_4589 envelope (gp120) (HIV-1)
binder,measurement,setting,value
B1,neutralization IC50,[1],3.65 µg/mL
same,neutralization IC80,[2],15.4 µg/mL
same,neutralization IC50,[3],3.43 µg/mL
same,neutralization IC50,[4],4 ng/mL
same,neutralization IC50,[5],0.05 µg/mL
same,neutralization IC80,[6],0.023 µg/mL
same,neutralization IC50,[7],< 1 ng/mL
same,neutralization IC80,[8],0.13 µg/mL
same,neutralization IC80,[9],0.45 µg/mL
same,neutralization IC80,[10],0.04 µg/mL
same,neutralization IC50,[11],0.45 µg/mL
same,neutralization IC80,[12],0.033 µg/mL
same,neutralization IC50,[13],0.01 µg/mL
same,neutralization IC80,[14],0.007 µg/mL
same,neutralization IC80,[15],> 50 µg/mL
same,neutralization IC80,[16],0.17 µg/mL
same,neutralization IC50,[17],0.027 µg/mL
same,neutralization IC80,[18],3 ng/mL
same,neutralization IC50,[19],0.02 µg/mL
same,neutralization IC80,[20],2.6 µg/mL
same,neutralization IC50,[21],< 1 ng/mL
same,neutralization IC80,[22],0.13 µg/mL
same,neutralization IC50,[23],0.03 µg/mL
same,neutralization IC80,[24],4 ng/mL
same,neutralization IC50,[25],5 ng/mL
same,neutralization IC80,[26],> 50 µg/mL
same,neutralization IC50,[27],0.2 µg/mL
same,neutralization IC50,[28],< 1 ng/mL
same,neutralization IC80,[29],0.45 µg/mL
same,neutralization IC80,[30],0.099 µg/mL
same,neutralization IC80,[31],1.12 µg/mL
same,neutralization IC50,[32],0.32 µg/mL
same,neutralization IC50,[33],2 ng/mL
same,neutralization IC50,[34],18.9 µg/mL
same,neutralization IC50,[35],1.33 µg/mL
same,neutralization IC50,[36],0.54 µg/mL
same,neutralization IC50,[37],0.01 µg/mL
same,neutralization IC80,[38],0.05 µg/mL
same,neutralization IC80,[39],> 50 µg/mL
same,neutralization IC50,[40],> 50 µg/mL
same,neutralization IC80,[41],0.18 µg/mL
same,neutralization IC80,[42],0.92 µg/mL
same,neutralization IC80,[43],17.6 µg/mL
same,neutralization IC80,[44],0.16 µg/mL
same,neutralization IC80,[45],0.035 µg/mL
same,neutralization IC80,[46],0.005 µg/mL
same,neutralization IC80,[47],0.023 µg/mL
same,neutralization IC50,[48],0.37 µg/mL
same,neutralization IC80,[49],0.07 µg/mL
B2,neutralization IC50,[1],> 50 µg/mL
same,neutralization IC80,[2],37 µg/mL
same,neutralization IC50,[3],7.91 µg/mL
same,neutralization IC50,[4],14 ng/mL
same,neutralization IC50,[5],0.1 µg/mL
same,neutralization IC80,[6],0.047 µg/mL
same,neutralization IC50,[7],< 1 ng/mL
same,neutralization IC80,[8],0.3 µg/mL
same,neutralization IC80,[9],0.83 µg/mL
same,neutralization IC80,[10],4.62 µg/mL
same,neutralization IC50,[11],0.59 µg/mL
same,neutralization IC80,[12],0.063 µg/mL
same,neutralization IC50,[13],0.03 µg/mL
same,neutralization IC80,[14],0.016 µg/mL
same,neutralization IC80,[15],> 50 µg/mL
same,neutralization IC80,[16],0.42 µg/mL
same,neutralization IC50,[17],0.02 µg/mL
same,neutralization IC80,[18],4 ng/mL
same,neutralization IC50,[19],0.04 µg/mL
same,neutralization IC80,[20],2.45 µg/mL
same,neutralization IC50,[21],< 1 ng/mL
same,neutralization IC80,[22],0.27 µg/mL
same,neutralization IC50,[23],0.09 µg/mL
same,neutralization IC80,[24],11 ng/mL
same,neutralization IC50,[25],11 ng/mL
same,neutralization IC80,[26],> 50 µg/mL
same,neutralization IC50,[27],0.37 µg/mL
same,neutralization IC50,[28],< 1 ng/mL
same,neutralization IC80,[29],0.51 µg/mL
same,neutralization IC80,[30],0.198 µg/mL
same,neutralization IC80,[31],1.65 µg/mL
same,neutralization IC50,[32],0.28 µg/mL
same,neutralization IC50,[33],7 ng/mL
same,neutralization IC50,[34],> 50 µg/mL
same,neutralization IC50,[35],> 50 µg/mL
same,neutralization IC50,[36],0.89 µg/mL
same,neutralization IC50,[37],0.011 µg/mL
same,neutralization IC80,[38],0.11 µg/mL
same,neutralization IC80,[39],> 50 µg/mL
same,neutralization IC50,[40],> 50 µg/mL
same,neutralization IC80,[41],0.23 µg/mL
same,neutralization IC80,[42],1.38 µg/mL
same,neutralization IC80,[43],> 50 µg/mL
same,neutralization IC80,[44],0.43 µg/mL
same,neutralization IC80,[45],0.062 µg/mL
same,neutralization IC80,[46],0.024 µg/mL
same,neutralization IC80,[47],0.029 µg/mL
same,neutralization IC50,[48],0.56 µg/mL
same,neutralization IC80,[49],0.14 µg/mL
